Patent publication US20090291083A1, “BARB4 TARGET, ANTIBODY DESIGNATED BARB4, BARB4 RELATED ANTIBODIES, AND METHODS OF MAKING AND USING SAME” (PATRYS LIMITED, priority 2008, published 2009)

Columns and labels:
[1] = test system: Malignant Tissues: Breast; experiment: Immunohistochemistry (IHC) with biotinylated BARB4 on malignant tissue; format: binding, human; conditions: positive/negative
Protocol: (§1) Immunohistochemistry with human IgG on human tissue naturally results in high background staining. Accordingly, BARB4 was labeled with biotin to reduce background.
(§2) BARB4 antibody and an unrelated commercial IgG control (Chrompure IgG, Dianova) where labelled with “EZ-Link Maleimide-PEO Solid Phase Biotinylation Kit” from Pierce (Cat-# 21930) and Immunohistochemistry was initiated on different tumor tissue. Parrafin embedded tissue was first deparaffinized by treatment with Xylene 1 for 5 min, Xylene 2 for 5 min, followed by 100% Ethanol 1 for 5 min, 100% Ethanol 2 for 5 min, 70 ml Methanol+500 μl H2O2 for 7 min, 90% Ethanol 1 for 3 min, 90% Ethanol 2 for 3 min, 80% Ethanol 1 for 3 min, 80% Ethanol 2 for 3 min, 70% Ethanol 1 for 3 min, 70% Ethanol 2 for 3 min, and then washed three times with distilled H2O. (1 and 2 mean that the tissues were treated 2 times with the same alcohol, one after the another, in two different tanks.) Tissue was then heated in Citric acid, pH 5,5 in a water-bath at 99.9° C. for 20 min, placed in Tris/NaCl (Tris, 0.6 g/l and NaCl 8.1 g/l, pH 7.4) for 5 min, block with 0.5% BSA in PBS for 60 min, and then washed three times with Tris/NaCl (Tris, 0.6 g/l and NaCl 8.1 g/l, pH 7.4). Primary antibody (150 μl per microscope slide) was added, or a negative control biotinylated isotype matched control human antibody (Chrompure IgG, Dianova, Germany) or a positive controlanti-cytokeratin antibody, and incubated for 30 min in a humidified chamber at 37° C. Tissue was washed three times with Tris/NaCl (Tris, 0.6 g/l and NaCl 8.1 g/l, pH 7.4). Secondary antibody: (150 […]) was subsequently added and incubated for 30 min in a humidified chamber at room temperature (for biotinylated antibodies: NeurtrAvidin 1:100 in PBS), washed three times with Tris/NaCl (Tris, 0.6 g/l and NaCl 8.1 g/l, pH7.4), placed in PBS for 10 min. Tiusse was subsequently incubated with diaminobenzidine (0.05%)-hydrogen peroxide (0.02%) (150 μl per microscope slide) (Sigma, Taufkirchen, München, Germany) for 10 min, washed three times with H2O, washed once with distilled H2O, incubated with hematoxylin/eosin for 5 min, and placed under running tap water 10-15 min. Tissue was then washed again with distilled H2O, and the slides covered with Aquatex (Merck Bioscience).

Malignant Tissues: Colon = experiment: as above; format: binding, human; conditions: positive/negative
Protocol: as §1, §2

[2] = test system: Malignant Tissues: Prostrate; experiment: as above; format: binding, human; conditions: Adeno, positive/negative
Protocol: as §1, §2

[3] = test system: Malignant Tissues: Stomach; experiment: as above; format: binding, human; conditions: positive/negative
Protocol: as §1, §2

[4] = test system: pancreas cancer cells (BXPC-3); experiment: FACS analysis of tumor cell binding; design: species or system human; conditions: 20 min on ice
Protocol: To analyze tumor cell binding, pancreas cancer cells (BXPC-3), stomach cancer cells (23132/87), lung carcinoma cells (A549) and malignant melanoma cells (HTB-69 and CRL-1424) were grown to subconfluency in complete medium, detached with Trypsin/EDTA and incubated on ice for 1 h for recreation. Tumor cells were subsequently incubated on ice with BARB4 antibody (diluted in PBS containing 0.01% sodium azide), or human isotype-matched control antibody (Chrompure human IgG, Dianova, Hamburg, Germany) for 20 min on ice. Following incubation, cells were incubated with a FITC-labeled rabbit anti-human IgG antibody (1:50, Dako, Germany) for 20 min on ice, and cells were analyzed by flow cytometry (FACScan; Becton Dickinson, USA).

[5] = test system: BXPC-3 cells transfected with TAF 15 siRNA; experiment: FACS analysis after TAF 15 siRNA knockdown; format: binding, human; conditions: BARB4 300 μg/ml
Protocol: Before transfection, 24-well plates were inoculated with 0.5×10^4 BXPC-3 cells in growth medium (RPMI 1640 supplemented with […] and 1% (V/V) glutamine). The cells were incubated at 37° C. and a 7% CO2 atmosphere over night to reach a confluence of 50 to 70% the following day. 60 minutes prior to transfection, the medium was carefully aspirated from the wells and 250 μl (300 μl for nontransfected cells) fresh growth medium was added. For each well 50 μl transfection solution was prepared. First […] serum-free OptiMEM® I+GlutaMAX™-I (1×) medium (Invitrogen, Karlsruhe) supplemented with 0.5 μl siLentFect™Lipid Reagent (Biorad, München) was mixed. Afterwards 25 μl serum-free medium containing siGENOME SMARTpool siRNA (Dharmacon, Lafayette, USA) was prepared to achieve a final concentration of 100 nM siRNA. Both solutions were prepared separately. After five minutes they were added together and mixed by pipetting. […]
FACS assays were done with transfected cells. […] At least 200 μl FACS buffer was added and cells were analyzed by flow cytometry (FACScan; Becton Dickinson, San Jose, Calif.) using WinMDI software. […]
Mouse anti-human CD55 antibody (DAF; 1:1000; Acris, Hiddenhausen) was used to control protein expression of other cell surface membrane proteins. […] The cells were analyzed by flow cytometry (FACScan, Becton Dickinson, San Jose) and evaluated with WinMDI software.

B1: BARB4: human IgG antibody produced by hybridoma DSMZ Deposit No. DSM ACC2876; heavy chain SEQ ID NOs:1, 3, 5, 7, light chain SEQ ID NO:9 (antibody, V domains shown)
VH: QVQLVESGGGVVQPGRSLRLSCAASGFRFTTHGMHWVRQAPGKGLEWVAVISYNGRNKYYADYVNGRFTISRDDSRDTVFLQMNSLRPEDTAMYYCAKVRGDGYGDYGYFDYWGHGTLVSVSS
VL: QSALTQPRSVSGSPGQSVTISCTGTYNYVSWYQQHPGKAPKLMIFDVSRRSSGVPDRFSGSKSGNTASLTISGLQAEDEADYYCCSYGGTYLYVFGTGTTVTVLGQ
[1]; Invasive ductal
  Barb 4 +/−: 2/0
[1]; Lung Metastasis
  Barb 4 +/−: 1/0
[1]; Lymph Node Metastasis
  Barb 4 +/−: 1/0
Malignant Tissues: Colon; Adeno
  Barb 4 +/−: 1/0
Malignant Tissues: Colon; Liver Metastasis
  Barb 4 +/−: 2/0
[2]
  Barb 4 +/−: 1/0
[3]; Adeno (Cardio, intestinal)
  Barb 4 +/−: 1/0
[3]; Adeno (intestinal)
  Barb 4 +/−: 2/0
[4]
  tumor cell binding (FACS): binds
[5]; 48 h after transfection
  FACS binding to cells treated with siRNA against human TAF15 mRNA: clearly reduced binding
[5]; after 48 h
  FACS binding to untreated cells and cells treated with unrelated siRNA (negative control): binds
